Values quoted from earlier work in article PMC3135726.

What was measured:
[1] = biological target: PTHrP (Homo sapiens) (UniProt P12272)
[2] = biological target: Importin-α IBB (Homo sapiens) (UniProt P52292)
[3] = biological target: Snurportin1 IBB (Homo sapiens) (UniProt O95149)
[4] = biological target: hnRNP M PY-NLS (Homo sapiens) (UniProt P52272)
[5] = biological target: hnRNP A1 PY-NLS (Homo sapiens) (UniProt P09651)
Chain of hnRNP A1 PY-NLS (Homo sapiens) (P09651 320-357): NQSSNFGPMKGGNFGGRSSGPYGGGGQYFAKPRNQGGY

Chain of Importin-β (Q14974 whole entry): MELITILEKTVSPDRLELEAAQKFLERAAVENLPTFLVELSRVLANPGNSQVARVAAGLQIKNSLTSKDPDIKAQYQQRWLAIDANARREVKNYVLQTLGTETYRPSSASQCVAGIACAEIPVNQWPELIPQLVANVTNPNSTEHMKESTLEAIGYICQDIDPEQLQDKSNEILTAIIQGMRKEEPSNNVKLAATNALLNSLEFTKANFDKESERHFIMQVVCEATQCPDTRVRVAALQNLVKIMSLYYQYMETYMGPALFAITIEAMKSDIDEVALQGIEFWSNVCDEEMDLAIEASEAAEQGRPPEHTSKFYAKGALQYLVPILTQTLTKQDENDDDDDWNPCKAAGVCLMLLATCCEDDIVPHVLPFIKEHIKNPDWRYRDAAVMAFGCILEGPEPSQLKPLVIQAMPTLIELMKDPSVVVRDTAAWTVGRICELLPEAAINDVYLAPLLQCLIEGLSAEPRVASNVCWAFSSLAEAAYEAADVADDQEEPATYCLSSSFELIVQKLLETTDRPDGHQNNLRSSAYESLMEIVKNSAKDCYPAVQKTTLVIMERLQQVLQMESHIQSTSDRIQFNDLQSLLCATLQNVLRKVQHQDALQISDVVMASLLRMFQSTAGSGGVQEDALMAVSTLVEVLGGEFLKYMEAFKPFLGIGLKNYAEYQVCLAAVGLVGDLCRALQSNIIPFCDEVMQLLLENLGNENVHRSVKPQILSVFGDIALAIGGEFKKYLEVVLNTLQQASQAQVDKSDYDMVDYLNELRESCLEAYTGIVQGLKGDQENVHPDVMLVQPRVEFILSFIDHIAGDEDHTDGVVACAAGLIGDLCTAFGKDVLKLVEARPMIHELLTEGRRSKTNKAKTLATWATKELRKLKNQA
Chain of Kapβ2 (Q92973 whole entry): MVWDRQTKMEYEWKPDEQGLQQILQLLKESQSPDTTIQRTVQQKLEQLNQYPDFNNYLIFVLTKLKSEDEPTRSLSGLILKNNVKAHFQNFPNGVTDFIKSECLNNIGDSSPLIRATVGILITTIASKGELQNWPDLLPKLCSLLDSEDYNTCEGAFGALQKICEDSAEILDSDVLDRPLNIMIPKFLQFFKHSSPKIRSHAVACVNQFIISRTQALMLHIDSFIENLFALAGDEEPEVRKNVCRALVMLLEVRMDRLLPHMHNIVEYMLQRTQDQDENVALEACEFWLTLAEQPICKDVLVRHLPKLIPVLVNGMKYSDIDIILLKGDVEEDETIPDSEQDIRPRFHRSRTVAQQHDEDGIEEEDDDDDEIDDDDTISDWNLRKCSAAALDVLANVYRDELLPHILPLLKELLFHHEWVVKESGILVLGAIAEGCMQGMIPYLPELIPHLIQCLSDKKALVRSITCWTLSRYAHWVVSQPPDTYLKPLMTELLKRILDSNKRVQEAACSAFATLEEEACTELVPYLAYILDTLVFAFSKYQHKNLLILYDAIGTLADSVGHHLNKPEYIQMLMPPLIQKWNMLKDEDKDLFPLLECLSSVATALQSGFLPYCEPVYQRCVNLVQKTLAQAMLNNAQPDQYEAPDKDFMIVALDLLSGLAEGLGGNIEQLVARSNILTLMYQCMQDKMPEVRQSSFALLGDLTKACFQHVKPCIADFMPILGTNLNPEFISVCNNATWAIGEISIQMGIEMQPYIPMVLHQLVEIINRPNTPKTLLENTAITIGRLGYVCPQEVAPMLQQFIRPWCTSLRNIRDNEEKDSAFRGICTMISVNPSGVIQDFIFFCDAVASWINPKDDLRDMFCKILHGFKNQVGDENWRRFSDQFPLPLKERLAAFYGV
Chain of PTHrP (Homo sapiens) (P12272 37-72): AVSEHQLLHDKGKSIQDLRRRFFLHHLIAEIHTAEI
Chain of hnRNP M PY-NLS (Homo sapiens) (P52272 41-70): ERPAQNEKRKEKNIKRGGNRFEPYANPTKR
Chain of Snurportin1 IBB (Homo sapiens) (O95149 8-76): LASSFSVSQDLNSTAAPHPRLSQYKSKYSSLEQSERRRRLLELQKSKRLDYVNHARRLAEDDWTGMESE

Row | Kd [1] [nM] | Kd [2] [nM] | Kd [3] [nM] | Kd [4] [nM] | Kd [5] [nM] | Substance
1 | 2 | 2 | 2 | – | – | Importin-β (from UniProt Q14974)
2 | – | – | – | 10 | 42 | Kapβ2 (from UniProt Q92973)
